The subject of data set [1] is H292-HGF human lung cancer xenograft. The data set is described as follows: Efficacy of bispecific molecule and other inhibitors in subcutaneous H292-HGF xenograft model. Type of data set: in vivo, SCID/Beige mice. Conditions: for mean tumor size: ECB38 25 mg/kg; for antitumor activity (in words): doses as in E46.
Protocol: The H292-HGF cells were maintained in vitro in RPMI1640 medium supplemented with fetal bovine serum (10% v/v), and L-glutamine (2 mM) at 37° C. in an atmosphere of 5% CO2 in air. The cells were routinely subcultured twice weekly by trypsin-EDTA treatment. The cells growing in an exponential growth phase were harvested and counted for tumor inoculation.
Each mouse was inoculated subcutaneously at the right flank region with H292-HGF tumor cells (2×10^6) in 0.1 ml of PBS with cultrex (1:1) for tumor development. The treatments were started when the mean tumor size reached 139 mm^3. […] The date of tumor cell inoculation was denoted as day 0.
Before commencement of treatment, all animals were weighed and the tumor volumes were measured. Since the tumor volume can affect the effectiveness of any given treatment, mice were assigned into groups using randomized block design based upon their tumor volumes. […] The randomized block design was used to assign experimental animals to groups. First, the experimental animals were divided into homogeneous blocks according to their initial tumor volume. Secondly, within each block, randomization of experimental animals to treatments was conducted.
The major endpoint was whether tumor growth can be delayed or tumor bearing mice can be cured. Tumor size was measured twice weekly in two dimensions using a caliper, and the volume was expressed in mm^3 using the formula: V=0.5 a×b^2 where a and b are the long and short diameters of the tumor, respectively. The tumor size was then used for calculations of both T−C and T/C values. T−C was calculated with T as the time (in days) required for the mean tumor size of the treatment group to reach 1000 mm^3, and C was the time (in days) for the mean tumor size of the control group to reach the same size. The T/C value (in percent) was an indication of antitumor efficacy; T and C were the mean volume of the treated and control groups, respectively, on a given day. Complete tumor regression (CR) is defined as tumors that are reduced to below the limit of palpation (62.5 mm^3). Partial tumor regression (PR) is defined as tumors that are reduced from initial tumor volume. A minimum duration of CR or PR in 3 or more successive tumor measurements is required for a CP or PR to be considered durable.
Statistical analyses of difference in tumor volume among the groups were evaluated using a one-way ANOVA followed by individual comparisons using Games-Howell (equal variance not assumed). All data were analyzed using SPSS 18.0. p<0.05 was considered to be statistically significant.
Data set [2] is described as follows: Body weight and tolerability in the H292-HGF xenograft study.
Protocol: (§2) At the time of routine monitoring, the animals were checked for any effects of tumor growth and treatments on normal behavior, such as mobility, visual estimation of food and water consumption, body weight gain/loss (body weights were measured twice weekly), eye/hair matting and any other abnormal effect.
(§3) Animals for which the body weight loss exceeded 20%, or for which the mean tumor size of the group exceeds 2000 mm^3 were euthanized. The study was terminated after two weeks of observation after the final dose.
The target in data set [3] is T1, EGFR (Homo sapiens, UniProt P00533). As to the kind of experiment: Inhibition of EGFR phosphorylation in NCI-H441 cells. Type of data set: cell-based. Conditions: FIG. 7C. As for the experimental part:
(§1) NCI-H292, NCI-H441, or NCI-H596 cells were plated in 96 well plates in RPMI medium containing 10% FBS. 24 hours later, medium was replaced with serum free RPMI. […] Cells were treated for 1h with the monospecific or bispecific molecules and then stimulated with EGF, HGF, or a combination of EGF and HGF for 15 minutes at 37° C., 5% CO2. Cells were lysed with MSD Lysis Buffer and cell signaling was assessed using appropriate MSD Assay plates, according to manufacturer's instructions, as described above.

Data set [4] deals with T1, EGFR. The data set is described as follows: Inhibition of EGFR phosphorylation in NCI-H596 cells. The format is cell-based. The following applies: FIG. 7B. As for the experimental part:
as §1

Data set [5] concerns the target T1, EGFR. The data set is described as follows: Inhibition of EGFR phosphorylation in NCI-H292 cells. Conditions: FIG. 7A. Type of data set: cell-based. The protocol: as §1
Purified bispecific PEG24-maleimide conjugates were tested for their ability to inhibit EGF-stimulated phosphorylation of EGFR in the human tumor cell line NCI-H292 (American Type Culture Collection, cat. #CRL-1848) using the EGFR phospho(Tyr1173) kit from Meso Scale Discovery (Gaithersburg, Md.) and as described in Example 3.

Data set [6] deals with H292-HGF tumor xenografts. The data set is described as follows: Tumor efficacy study with bispecific EGFR/c-Met molecules of variable affinity. Type of data set: in vivo, SCID Beige mice. Conditions: 25 mg/kg three times per week. As for the experimental part: One week after implantation, mice were stratified into groups with equivalent tumor volumes (mean tumor volume=77.9+/−1.7 mm^3). Mice were dosed three times per week with the bispecific molecules and tumor volumes were recorded twice weekly.

For data set [7] the following is noted: mouse, in vivo, ip.
Protocol: SCID Beige mice were subcutaneously inoculated with NCI-H292 cells expressing human HGF (2.0×10^6 cells in Cultrex (Trevigen) in a volume of 200 μL) on the dorsal flank of each animal. Tumor measurements were taken twice weekly until tumor volumes ranged between 150-250 mm^3. […] At 6h or 72h after dosing, tumors were extracted and immediately frozen in liquid nitrogen. […] Immediately after collection, the blood samples were centrifuged and the resulting plasma was transferred to sample tubes and stored at −80° C. Tumors were weighed, cut into small pieces, and lysed in Lysing Matrix A tubes (LMA) containing RIPA buffer with HALT protease/phosphatase inhibitors (Pierce), 50 mM sodium fluoride (Sigma), 2 mM activated sodium orthovanadate (Sigma), and 1 mM PMSF (MesoScale Discovery). Lysates were removed from LMA matrix and centrifuged to remove insoluble protein. The soluble tumor protein was quantified with a BCA protein assay and diluted to equivalent protein levels in tumor lysis buffer. Phosphorylated c-Met, EGFR and ERK were measured using assay plates from MesoScale Discovery (according to Manufacturer's protocol and as described above).
For data set [8] the following is noted: mouse, in vivo.
Protocol: as §2, §3
The mark [9] stands for this setting: day 23 after tumor inoculation, Crizotinib 50 mg/kg, Erlotinib 50 mg/kg, Cetuximab 1 mg/mouse.

“Also recorded” adds a separate entry of the source. Where two headings read alike, the source gives them in different places.

Take `C[C@@H](Oc1cc(-c2cnn(C3CCNCC3)c2)cnc1N)c1c(Cl)ccc(F)c1Cl` [Crizotinib, crizotinib]: the “Tumor volume (mm^3)” value is on record as 217 ± 20 mm^3 in data set [1] (day 9 after tumor inoculation, mean ± SEM, bispecific 25 mg/kg, Crizotinib 50 mg/kg, Erlotinib 50 mg/kg, Cetuximab 1 mg/mouse); 547 ± 43 mm^3 in data set [1] (day 13 after tumor inoculation, mean ± SEM, bispecific 25 mg/kg, Crizotinib 50 mg/kg, Erlotinib 50 mg/kg, Cetuximab 1 mg/mouse); 914 ± 92 mm^3 in data set [1] (day 16 after tumor inoculation, mean ± SEM, bispecific 25 mg/kg, Crizotinib 50 mg/kg, Erlotinib 50 mg/kg, Cetuximab 1 mg/mouse); 1438 ± 239 mm^3 in data set [1] (day 20 after tumor inoculation, mean ± SEM, bispecific 25 mg/kg, Crizotinib 50 mg/kg, Erlotinib 50 mg/kg, Cetuximab 1 mg/mouse); 2102 ± 298 mm^3 in data set [1] (day 23 after tumor inoculation, mean ± SEM, bispecific 25 mg/kg, Crizotinib 50 mg/kg, Erlotinib 50 mg/kg, Cetuximab 1 mg/mouse). In addition, the “T/C (%)” value in data set [1] (day 23, mean volume of treated vs control group, doses as in the Treatment column) is reported as 120%. The “Tumor Size (mm^3) at day 23” value in data set [1] (day 23, mean ± SEM, bispecific 25 mg/kg, Crizotinib 50 mg/kg, Erlotinib 50 mg/kg, combination 50 mg/kg + 50 mg/kg, Cetuximab 1 mg/mouse) is 2102 ± 298 mm^3. Further, in data set [1] (setting [9]), the mean tumor size is 2,102 mm^3. Also, the “antitumor activity (in words)” value in data set [1] is reported as “no antitumor activity”. In addition, the “toxicity / body weight loss / tolerability (in words)” value in data set [2] (doses as in E46) was “More severe body weight loss”.

B1: ECB5: bispecific SEQ ID 54: P53A1R5-17V2, (GGGGS)4, P114AR7P94-A3 (protein)
chain: MLPAPKNLVVSEVTEDSARLSWADPHGFYDSFLIQYQESEKVGEAIVLTVPGSERSYDLTGLKPGTEYTVSIYGVHNVYKDTNMRGLPLSAIFTTGGGGSGGGGSGGGGSGGGGSMLPAPKNLVVSRVTEDSARLSWTAPDAAFDSFWIRYFEFLGSGEAIVLTVPGSERSYDLTGLKPGTEYVVNIMGVKGGKISPPLSAIFTT
modifications: bispecific EGFR/cMet binding molecule
As for B1, the “decrease of IC50 for inhibition of EGFR phosphorylation compared to the monospecific EGFR-binding FN3 domain” value with EGFR [3] was 30 fold. Further, the “inhibition of phosphorylation of EGFR, bispecific vs monospecific (in words)” value with EGFR [4] and with EGFR [5] was “comparable” each time.

B2: ECB39: bispecific SEQ ID 121: P53A1R5-17V2, (AP)5, P114AR7P94-A3, linked to albumin binding domain (protein)
chain: MLPAPKNLVVSEVTEDSARLSWADPHGFYDSFLIQYQESEKVGEAIVLTVPGSERSYDLTGLKPGTEYTVSIYGVHNVYKDTNMRGLPLSAIFTTAPAPAPAPAPLPAPKNLVVSRVTEDSARLSWTAPDAAFDSFWIRYFEFLGSGEAIVLTVPGSERSYDLTGLKPGTEYVVNIMGVKGGKISPPLSAIFTTAPAPAPAPAPLAEAKVLANRELDKYGVSDYYKNLINNAKTVEGVKALLDEILAALP
modifications: Bispecific EGFR/c-Met binding molecule
For the molecule B2, the “tumor growth / tumor growth inhibition (in words)” value in data set [6] is on record as “showed the most efficacy”. The “tumor accumulation (in words)” value in data set [7] is “significantly more tumor accumulation at 6 hours relative to the other molecules”.

B3: ECB38: bispecific SEQ ID 120: P54AR4-83V2, (AP)5, P114AR7P94-A3, linked to albumin binding domain (protein)
chain: MLPAPKNLVVSEVTEDSARLSWDDPWAFYESFLIQYQESEKVGEAIVLTVPGSERSYDLTGLKPGTEYTVSIYGVHNVYKDTNMRGLPLSAIFTTAPAPAPAPAPLPAPKNLVVSRVTEDSARLSWTAPDAAFDSFWIRYFEFLGSGEAIVLTVPGSERSYDLTGLKPGTEYVVNIMGVKGGKISPPLSAIFTTAPAPAPAPAPLAEAKVLANRELDKYGVSDYYKNLINNAKTVEGVKALLDEILAALP
modifications: Bispecific EGFR/c-Met binding molecule
As to B3, the mean tumor size in data set [1] (setting [9]) is reported as 23 mm^3. Further, in data set [1], the “antitumor activity (in words)” value is listed as “complete tumor regression (CR) in all mice; also recorded: complete response”. Moreover, the “mice euthanized when BWL>20% during the treatment period” value in data set [2] (25 mg/kg) is listed as 3 mice. Also, the “mice in which the treatment was tolerated” value in data set [2] (25 mg/kg, 3 times/week x 3 weeks) was 7 out of 10. Further, the “toxicity / body weight loss / tolerability (in words)” value in data set [8] is “Slight toxicity”. In addition, the “tumor growth / tumor growth inhibition (in words)” value in data set [6] was “showed the most efficacy”.

These data come from US11702475B2, “Cysteine engineered fibronectin type III domain binding molecules” (Janssen Biotech, Inc., priority 2013, dated 2023).
